Patent US20260071002A1 (Hoffmann-La Roche, published 2026)
Read-outs that look alike come from different tables or passages of the source.

Columns and labels:
[1] = target: T1, human CEACAM5 (human, UniProt P06731 35-685); experiment: FACS on MKN-45 cells expressing human CEACAM5
T1 construct: whole, on cells; Target on MKN-45 (DSMZ ACC409) and LS180 (ATCC CL-187) cells; also called carcinoembryonic antigen-related cell adhesion molecule 5; CD66e
T1 sequence (looked up): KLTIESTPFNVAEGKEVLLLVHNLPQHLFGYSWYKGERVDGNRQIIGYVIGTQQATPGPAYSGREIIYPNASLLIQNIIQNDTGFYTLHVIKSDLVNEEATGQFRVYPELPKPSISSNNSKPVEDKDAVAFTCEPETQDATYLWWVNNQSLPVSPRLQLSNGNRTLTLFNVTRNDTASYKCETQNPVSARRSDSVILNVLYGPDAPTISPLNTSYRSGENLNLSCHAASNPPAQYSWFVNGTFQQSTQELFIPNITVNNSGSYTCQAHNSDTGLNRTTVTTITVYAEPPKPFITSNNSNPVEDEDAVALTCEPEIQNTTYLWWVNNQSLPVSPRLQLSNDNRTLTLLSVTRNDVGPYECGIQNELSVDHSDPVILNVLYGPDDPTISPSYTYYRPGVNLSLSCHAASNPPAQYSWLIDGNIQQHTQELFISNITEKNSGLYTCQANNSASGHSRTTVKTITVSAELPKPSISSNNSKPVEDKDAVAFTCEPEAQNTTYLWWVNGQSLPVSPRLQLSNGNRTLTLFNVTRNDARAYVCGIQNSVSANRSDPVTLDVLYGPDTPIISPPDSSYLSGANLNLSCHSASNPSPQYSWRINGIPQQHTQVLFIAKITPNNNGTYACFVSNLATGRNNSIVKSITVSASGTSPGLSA
Method: The cellular binding assay was performed as follows.
(§1) 10 μl of a 1×10⁴ MKN-45 (DSMZ ACC409) cell suspension in assay buffer was seeded in all Wells of a 384 well polypropylene plate (Weidmann #23490-101). Then 10 μl of antibodies diluted in assay buffer (double concentrated), at a start concentration of 100 μg/ml, serially diluted 1:4 were added to the plate. After 90 minutes incubation at 4° C., 60 μl assay buffer was added followed by a centrifuge step (330×g, 5 min) and an aspirating step (BioTek washer 405H) where 60 μl of supernatant were discarded. 20 μl of detection antibody (Alpaca anti rabbit IgG Chromotek #srbAF647-1) diluted in assay buffer (double concentrated) to a final concentration of 0.5 μg/ml was added to all Wells followed by 1 hour incubation time at room temperature. The cells were then subjected to two washing steps with 40 μl and 60 μl assay buffer as described above and then resuspended in 20 μl assay buffer. Cell binding was measured on an iQue Screener Plus high throughput FACS device from Sartorius/Intellicyt.

[2] = target: T1, human CEACAM5; experiment: FACS on MKN-45 cells expressing human CEACAM5; remark: listed apart in the source
Method: as §1

[3] = target: T2, human CEACAM1 (human, UniProt P13688 35-526); experiment: FACS on CHO cells overexpressing human CEACAM1
T2 construct: whole, on cells; also called CHO-CEACAM1
T2 sequence (looked up): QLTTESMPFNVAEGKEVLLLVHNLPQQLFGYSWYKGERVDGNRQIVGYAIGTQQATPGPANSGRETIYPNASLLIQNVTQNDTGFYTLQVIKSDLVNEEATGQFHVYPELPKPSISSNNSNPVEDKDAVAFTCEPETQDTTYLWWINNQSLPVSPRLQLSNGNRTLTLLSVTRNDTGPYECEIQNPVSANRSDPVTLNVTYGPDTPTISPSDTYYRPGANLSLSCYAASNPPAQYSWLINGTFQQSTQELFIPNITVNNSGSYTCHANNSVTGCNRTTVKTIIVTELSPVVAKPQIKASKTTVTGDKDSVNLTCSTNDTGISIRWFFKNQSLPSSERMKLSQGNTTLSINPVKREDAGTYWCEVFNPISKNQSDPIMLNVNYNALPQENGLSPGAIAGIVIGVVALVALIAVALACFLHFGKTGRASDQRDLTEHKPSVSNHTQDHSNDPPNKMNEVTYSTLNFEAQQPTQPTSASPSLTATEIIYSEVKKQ
Method: (§2) Viability of CHO-CEACAM1 (CHO cells overexpressing human CEACAM1) and CHO-CEACAM6 (CHO cells overexpressing human CEACAM6) cells was checked. Then 100 μl of re-suspended target cells were seeded into a U-bottom plate (100′000 cells/well). The antibodies were diluted in FACS buffer. The plates were centrifuged for 4 min at 400×g and supernatant was removed. Then 25 µl/well of the diluted antibodies were added to the cells. The cells were incubated for 45 min at 4° C. After the incubation, cells were washed twice and 25 μl/well of diluted (1/100 in FACS buffer) PE anti-human Fc secondary antibody (Jackson Immuno Research, #109-116-170) or the directly labeled CD66 antibody (Clone B1.1/CD66, BD Bioscience, #551480) was added to the cells. The cells were incubated for 45 min at 4° C. After the incubation, cells were washed twice. Then cells were re-suspended in 150 μl/well of FACS buffer. Cell binding was measured on the BD LSRFortessa Flow Cytometer, the same day.

[4] = target: T3, human CEACAM6 (human, UniProt P40199 35-320); experiment: FACS on CHO cells overexpressing human CEACAM6
T3 construct: whole, on cells; also called CHO-CEACAM6
T3 sequence (looked up): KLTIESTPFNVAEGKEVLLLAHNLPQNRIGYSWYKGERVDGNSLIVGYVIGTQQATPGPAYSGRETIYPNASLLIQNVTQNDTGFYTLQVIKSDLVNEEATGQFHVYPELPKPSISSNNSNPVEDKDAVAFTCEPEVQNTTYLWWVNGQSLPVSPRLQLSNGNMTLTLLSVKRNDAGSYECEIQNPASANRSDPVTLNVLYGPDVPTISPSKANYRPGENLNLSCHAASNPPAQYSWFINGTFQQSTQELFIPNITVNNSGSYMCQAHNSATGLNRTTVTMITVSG
Method: as §2

B1: T84.66-LCHA (P1AH2338) (antibody, V domains shown)
VH: QVQLVQSGAEVKKPGSSVKVSCKASGFNIKDTYMHWVRQAPGQGLEWMGRIDPANGNSKYVPKFQGRVTITADTSTSTAYMELSSLRSEDTAVYYCAPFGYYVSDYAMAYWGQGTLVTVSS
VL: EIVLTQSPATLSLSPGERATLSCRAGESVDIFGVGFLHWYQQKPGQAPRLLIYRASNRATGIPARFSGSGSGTDFTLTISSLEPEDFAVYYCQQTNEDPYTFGQGTKLEIK
notes: also called humanized variant 1
B1 showed an EC50 [1] of 5.3 nM and an EC50 [2] of 0.989 µg/mL.

B2: P1AH2359 (antibody, human IgG1, name in Kabat numbering, V domains shown)
VH: QVQLVQSGAEVKKPGSSVKVSCKASGFNIKDTYMHWVRQAPGQGLEWMGRIDPANGNSKYVPKFQGRVTITADTSTSTAYMQLSSLRSEDTAVYYCAPFGYYVSDYAMAYWGQGTLVTVSS
VL: EIVLTQSPATLSLSPGERATLSCRAGESVDIFGVGFLHWYQQKPGQAPRLLIYRASNRATGIPARFSGSGSGTDFTLTISSLEPEDFAVYYCQQTNEDPYTFGQGTKLEIK
B2 gave an EC50 [1] of 12.9 nM.

B3: P1AH2361 (antibody, human IgG1, name in Kabat numbering, V domains shown)
VH: QVQLVQSGAEVKKPGSSVKVSCKASGFNITDTYMHWVRQAPGQGLEWMGRIDPANGNSKYVPKFQGRVTITADTSTSTAYMELSSLRSEDTAVYYCAPFGYYVSDYAMAYWGQGTLVTVSS
VL: EIVLTQSPATLSLSPGERATLSCRAGESVDIFGVGFLHWYQQKPGQAPRLLIYRASNRATGIPARFSGSGSGTDFTLTISSLEPEDFAVYYCQQTNEDPYTFGQGTKLEIK
With B3 the EC50 [1] was 21.9 nM.

B4: P1AH2364 (antibody, human IgG1, name in Kabat numbering, V domains shown)
VH: QVQLVQSGAEVKKPGSSVKVSCKASGFNIKDTYMHWVRQAPGQGLEWMGRIDPANGNSKYVPKFQGRVTITADTSTSTAYMELSSLRSEDTAVYYCAPFGYYVSDYAMAYWGQGTLVTVSS
VL: EIVLTQSPATLSLSPGERATLSCRAGESVDIFGVGFLHWYQQKPGQAPRLLIYRGSNRATGIPARFSGSGSGTDFTLTISSLEPEDFAVYYCQQTNEDPYTFGQGTKLEIK
B4 was tested, and the EC50 [1] was 1.9 nM.

B5: P1AH2366 (antibody, human IgG1, name in Kabat numbering, V domains shown)
VH: QVQLVQSGAEVKKPGSSVKVSCKASGFNIKDTYMHWVRQAPGQGLEWMGRIDPANGNSKYVPKFQGRVTITADTSTSTAYMELSSLRSEDTAVYYCAPFGYYVSDYAMAYWGQGTLVTVSS
VL: EIVLTQSPATLSLSPGERATLSCRAGESVDIYGVGFLHWYQQKPGQAPRLLIYRASNRATGIPARFSGSGSGTDFTLTISSLEPEDFAVYYCQQTNEDPYTFGQGTKLEIK
notes: Kabat positions
B5 was tested, and the EC50 [1] was 2.7 nM.

B6: P1AH2370 (antibody, human IgG1, name in Kabat numbering, V domains shown)
VH: QVQLVQSGAEVKKPGSSVKVSCKASGFNIKDTYMHWVRQAPGQGLEWMGRIDPANGNSKYVPKFQGRVTITADTSTSTAYMELSSLRSEDTAVYYCAPFGYYVSDYAMAYWGQGTLVTVSS
VL: EIVLTQSPATLSLSPGERATLSCRAGESVSIFGVGFLHWYQQKPGQAPRLLIYRASNRATGIPARFSGSGSGTDFTLTISSLEPEDFAVYYCQQTNEDPYTFGQGTKLEIK
Work on B6 yielded an EC50 [1] of 3.1 nM.

B7: P1AH2373 (antibody, human IgG1, name in Kabat numbering, V domains shown)
VH: QVQLVQSGAEVKKPGSSVKVSCKASGFNIKDTYMHWVRQAPGQGLEWMGRIDPANGNSKYVPKFQGRVTITADTSTSTAYMELSSLRSEDTAVYYCAPFGYYVSDYAMAYWGQGTLVTVSS
VL: EIVLTQSPATLSLSPGERATLSCRAGESVDIFGVGFLHWYQQKPGQAPRLLIYRASNRATGIPARFSGSGSGTDFTLTISSLEPEDFAVYYCQQTNENPYTFGQGTKLEIK
In the case of B7, the EC50 [1] is reported as 2.5 nM.

B8: P1AH2368 (antibody, V domains shown)
VH: QVQLVQSGAEVKKPGSSVKVSCKASGFNIKDTYMHWVRQAPGQGLEWMGRIDPANGNSKYVPKFQGRVTITADTSTSTAYMELSSLRSEDTAVYYCAPFGYYVSDYAMAYWGQGTLVTVSS
VL: EIVLTQSPATLSLSPGERATLSCRAGESVDSYGVGFLHWYQQKPGQAPRLLIYRASNRATGIPARFSGSGSGTDFTLTISSLEPEDFAVYYCQQTNEDPYTFGQGTKLEIK
Binder B8 has an EC50 [1] of 2.5 nM.

B9: P1AH2369 (antibody, V domains shown)
VH: QVQLVQSGAEVKKPGSSVKVSCKASGFNIKDTYMHWVRQAPGQGLEWMGRIDPANGNSKYVPKFQGRVTITADTSTSTAYMELSSLRSEDTAVYYCAPFGYYVSDYAMAYWGQGTLVTVSS
VL: EIVLTQSPATLSLSPGERATLSCRAGESVDIFGNSFLHWYQQKPGQAPRLLIYRASNRATGIPARFSGSGSGTDFTLTISSLEPEDFAVYYCQQTNEDPYTFGQGTKLEIK
B9 gave an EC50 [1] of 5.5 nM.

B10: P1AH2349 (antibody, human IgG1, V domains shown)
VH: EVQLVESGGGLVQPGGSLRLSCAASGFNIKDTYMHWVRQAPGKGLEWVGRIDPANGNSKYADSVKGRFTISADTSKNTAYLQMNSLRAEDTAVYYCAPFGYYVSDYAMAYWGQGTTVTVSS
VL: EIVLTQSPATLSLSPGERATLSCRAGESVDIFGVGFLHWYQQKPGQAPRLLIYRASNRATGIPARFSGSGSGTDFTLTISSLEPEDFAVYYCQQTNEDPYTFGQGTKLEIK
notes: also called rehumanized improved expression variant
B10 showed an EC50 [1] of 7.2 nM and an EC50 [2] of 1.11 µg/mL.

B11: P1AI5015 (antibody, human IgG1, V domains shown)
VH: EVQLVESGGGLVQPGGSLRLSCAASGFNIKDTYMHWVRQAPGKGLEWVGRIDPANGNSKYADSVKGRFTISADTSKNTAYLQMNSLRAEDTAVYYCAPFGYYVSDYAMAYWGQGTTVTVSS
VL: EIVLTQSPATLSLSPGERATLSCRAGESVDIFGVGFLHWYQQKPGQAPRLLIYRGSNRATGIPARFSGSGSGTDFTLTISSLEPEDFAVYYCQQTYEYPYTFGQGTKLEIK
With B11 the binding result [3] was “no binding”, the binding result [4] was “no binding” and the EC50 [2] was 0.483 µg/mL.

B12: P1AI5014 (antibody, human IgG1, V domains shown)
VH: EVQLVESGGGLVQPGGSLRLSCAASGFNIKDTYMHWVRQAPGKGLEWVGRIDPANGNSKYADSVKGRFTISADTSKNTAYLQMNSLRAEDTAVYYCAPFGYYVSDYAMAYWGQGTTVTVSS
VL: EIVLTQSPATLSLSPGERATLSCRAGESVDIFGVGFLHWYQQKPGQAPRLLIYRGSNRATGIPARFSGSGSGTDFTLTISSLEPEDFAVYYCQQTNEDPYTFGQGTKLEIK
In the case of B12, the binding result [3] is reported as “no binding”, the binding result [4] is reported as “no binding” and the EC50 [2] is reported as 1.53 µg/mL.
